{"source": "paper PMC6497169", "about": "(Nature microbiology, 2017)", "binders": {"B1": {"name": "SetA (natural protein)", "chain": "MYKIYSYLGWRIDMKTENLPQAGQEAQIDKKIHFIWVGHIMPQKNIQVVSEWAEKNPGYETIIWVDKKIAPAKELDLFILDMKSKGITVKDINEEGVCRDSIRHELDQESPNYGMVSDMLRLNILAAEGGIYLDSDILCSAPFPDEIYAPFGFLLSPWSQGANNTLCNDIILCSKGNQIIQQLADAIEQSYIARDSFEFTHEYASMKETKGERIAKTLGVTGPGFLFHQLKKMGILNDKSEMEAIHWELQDQRYLIDGSVKEPDYFYVPQNNTNDASWVPSIKRPGIENMSFQERLENAVQLIAFDIQKTGLFNLDHYANELKVKQNSWCIAAETSPELKPDSYLLIRPRDKTGEWTLYYVDEDKKLNPVTLPVIKGAIKLSEVSDPLRKFHTLLSQVSDPVNPTAHELKQIGRALIELKPRQDEWHCKNKWSGAEEIAQELWQRITSNETLRAQIKQCFTQFESLKPRVAELGLTRASGAGTEVEAHESTVKEQEIISQNTVGEEGTKEKNSVQLASENSSDEKIKTAHDLIDEIIQDVIQLDGKLGLLGGNTRQLEDGRVINIPNGAAMIFDDYKKYKQGELTAESALESMIKIAKLSNQLNRHTFFNQRQPETGQFYKKVAAIDLQTTIAAEYDNNHGLRI"}, "B2": {"name": "DotL(590–783)–DotN–IcmSW–LvgA with the (His)10-MBP tag on DotL(590–783) (complex)", "chain 1": "VEPPPDDYLMKLQKQLASFQSILESGDLSINKAVENEEITLISKALKESTIVEPIERGVAALIAFHGQNEPEPVEDIVEEEVEGALTIFSKLRIDPNAPPILVADKEVFSEPLLPINETRNQMITIERLAGAKDKYAGTVANELIKDFQIATSYPPEERDVIDVQELTGIIRDLSAKISAEREKANKKAAEELT", "chain 2": "MADNQQRCELKLIASPGSWRLYSARKIDERFKSYEQKIFQRDRYTCQFCGFQARLYQDIVNLDGDYTNNRLSNLVTACCFCAQCFFVESVGVGGYGGGTLIYLPELTQAELNSLCHVLFCAITNDTGYKSSAQNIYRSFKFRSQIVEEKFGEGTSDPAIFGQLMIDSGVNSEEIREKLFKNIRLLPSRAKFRKQIEKWAASALEEIAD", "chain 3": "MERDISKCMAKIAASMNAKFYLNDRFVSFDEVFSETGLLPAIAKRADQLCSLCLGYGLGATYDESEGALLGIRVVFDEVTPNVLRLLCMTDVMNELIQGGPSRDYTPLDELMYD", "chain 4": "MPDLSHEASAKYWFEYLDPMIYRVITFMESVENWTLDGNPELEEAMKQLGQELDDIEKIDLGLLAEEDKFIRIVGNIKSGRGLRLLQAIDTVHPGSASRVLIHAEETSLSSSDPAGFFLKRNIVFERLRLLSRVFCQYRLKLVLRALEGDE", "chain 5": "MADGDIEIKAGFVDTDLDDRKLTMIDDLNNPLAIVERVYLIWWHWADFHLHVISPHIDTITPAIVIEPELIPGSNDHEFVYSIHDSGSKLSTSKSQDMFSAGMSMCKLFYTIEKMVYILVERLKSGGVSMEAEVQIAFAGHEIAQRKAFESIINLPYNVVVTNFDPGIWGEKYLQNVKRLADKGYGYPPESPRKIYMHPVSSGTTARK"}}, "key": {"[1]": {"biological_target": "B2", "assay": "BLI"}, "[2]": {"biological_target": "VpdB (L. pneumophila, UniProt Q5ZW60 1-598)", "assay": "BLI"}}}
{"binder": "B1", "values": [{"measurement": "Kd", "setting": "[1]", "result": 1600, "unit": "nM"}, {"measurement": "koff", "setting": "[1]", "result": 0.0203, "unit": "s⁻¹"}, {"measurement": "kon", "setting": "[1]", "result": 13100, "unit": "M⁻¹ s⁻¹"}]}
{"binder": "B2", "values": [{"measurement": "Kd", "setting": "[2]", "result": "~332", "unit": "nM"}, {"measurement": "koff", "setting": "[2]", "result": 0.0039, "unit": "s⁻¹"}, {"measurement": "kon", "setting": "[2]", "result": 11800, "unit": "M⁻¹ s⁻¹"}]}
